doi:10.1101/2021.07.31.454597 (bioRxiv, 2021)

B1: Cre^K201A (enzyme)
chain: MSNLLTVHQNLPALPVDATSDEVRKNLMDMFRDRQAFSEHTWKMLLSVCRSWAAWCKLNNRKWFPAEPEDVRDYLLYLQARGLAVKTIQQHLGQLNMLHRRSGLPRPSDSNAVSLVMRRIRKENVDAGERAKQALAFERTDFDQVRSLMENSDRCQDIRNLAFLGIAYNTLLRIAEIARIRVKDISRTDGGRMLIHIGRTATLVSTAGVEKALSLGVTKLVERWISVSGVADDPNNYLFCRVRKNGVAAPSATSQLSTRALEGIFEATHRLIYGAKDDSGQRYLAWSGHSARVGAARDMARAGVSIPEIMQAGGWTNVNIVMNYIRNLDSETGAMVRLLEDGD

How the values were obtained:
[1] = target: Cre^Yang (R72E/L115D/R199D) (UniProt P06956); assay: native MS
[2] = target: the molecule itself; assay: cryo-EM structure

Molecule	percent of the 2:1 protein:loxP complexes (ion counts) [1] [%]	stoichiometry N [2]
Cre^Yin (D33A/A36V/R192A) (from UniProt P06956 1-343) (enzyme)	36	
B1		4
